From paper PMC10696883, “Discovery of a non-canonical GRHL1 binding site using deep convolutional and recurrent neural networks” come the findings set out here.

This data set addresses T1, GRHL1 DNA-binding domain (UniProt Q9NZI5 248-485).
T1 sequence: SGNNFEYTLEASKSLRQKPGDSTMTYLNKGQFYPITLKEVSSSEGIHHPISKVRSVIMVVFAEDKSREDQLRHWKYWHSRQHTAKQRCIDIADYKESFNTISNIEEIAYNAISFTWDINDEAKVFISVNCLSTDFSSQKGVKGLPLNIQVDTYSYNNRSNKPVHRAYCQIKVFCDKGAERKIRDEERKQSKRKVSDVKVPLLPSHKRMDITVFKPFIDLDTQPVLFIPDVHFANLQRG
Kind of data set: ITC; ITC: 20 mM HEPES-NaOH pH 7.2, 125 mM NaCl, 2 mM DTT; ~10 µM dsDNA in cell, GRHL1 165 or 200 µM (Methods: 156 or 200 µM) in syringe; triplicates; temperature not stated. The settings on record: protein: recombinant; tags: His6 tag removed by TEV; chain copies: 2; blunt. A general note: In ITC the heat of successive injections is recorded.

B1: Novel_V2 (dsDNA)
DNA 1: AGGTTTTTCCAGTTTGGGGC
DNA 2: GCCCCAAACTGGAAAAACCT
A word on the Kd: it is the constant that tells how readily two partners part at equilibrium. On to B1, for which the Kd was found to be 210 ± 60 nM.

B2: Pos_Ctrl_V2 (dsDNA)
DNA 1: GGGCAAAACCGCTTTTGCGG
DNA 2: CCGCAAAAGCGGTTTTGCCC
As for B2, the Kd turned out to be 1540 ± 300 nM.

B3: Pos_Ctrl_V3 (dsDNA)
DNA 1: GGGCAAAACCGTTTTTGCGG
DNA 2: CCGCAAAAACGGTTTTGCCC
With B3, the Kd came out at 4350 ± 5400 nM.

B4: Novel_V3 (dsDNA)
DNA 1: AGGTTTTTCCATTTTGGGGC
DNA 2: GCCCCAAAATGGAAAAACCT
For the molecule B4, the binding result was “no binding”.

B5: Novel_V1 (dsDNA)
DNA 1: AGGTTTTTCCAATTTGGGGC
DNA 2: GCCCCAAATTGGAAAAACCT
Consider B5, for which the binding result is “no binding”.

B6: Pos_Ctrl_V1 (dsDNA)
DNA 1: GGGCAAAACCGATTTTGCGG
DNA 2: CCGCAAAATCGGTTTTGCCC
Take B6: the Kd is 3400 ± 2200 nM.

B7: Pos_Ctrl (dsDNA)
DNA 1: GGGCAAAACCGGTTTTGCGG
DNA 2: CCGCAAAACCGGTTTTGCCC
For the molecule B7, the Kd was 110 ± 30 nM.

B8: Novel (dsDNA)
DNA 1: AGGTTTTTCCACTTTGGGGC
DNA 2: GCCCCAAAGTGGAAAAACCT
As for B8, the Kd amounted to 180 ± 80 nM.

B9: Neg_Ctrl (dsDNA)
DNA 1: GCAAAAAGGAGTCATTGGTG
DNA 2: CACCAATGACTCCTTTTTGC
Consider B9, for which the binding result is on record as “no binding”.
